Experimental data as given in the supplement of paper PMC7125110.
± gives the standard error. Variants at the floor of the assay were thinned out.

B1: glmS ribozyme (parent)
chain: AUAAAAGCGCCAGAACUACAGAAAUGUAGUUGACGAGGAGGAGGUUUAUCGAAUUUUCGGCGGAUGCCUCCAAA

Columns and labels:
Conditions in all cases: with glucosamine-6-phosphate
glucosamine-6-phosphate [1] = variants of: B1; experiment: self-cleavage kobs at 640 uM GlcN6P; higher = faster cleavage; RNA array
Outline: (§1)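 kobs was derived by fitting per-tile medians to one- or two-exponential decays after normalising signals to baseline and to non-cleaving reference variants. Those signals came from barcoded ribozyme variants transcribed in situ by E. coli RNA polymerase on sequenced MiSeq chips, followed through a hybridised Cy3 probe at 37 °C and imaged over ~14 h. Glucosamine-6-phosphate (40 μM to 10 mM) in HEPES/KCl/Mg(OAc)2 buffer was flowed in. Weighted Michaelis–Menten fits across concentrations then gave kcat and KM.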

glucosamine-6-phosphate [2] = variants of: B1; experiment: self-cleavage kobs at 2500 uM GlcN6P; higher = faster cleavage; RNA array
Outline: as §1

glucosamine-6-phosphate [3] = variants of: B1; experiment: self-cleavage kobs at 10000 uM GlcN6P; higher = faster cleavage; RNA array
Outline: as §1

Row | Variant | self-cleavage kobs at 640 uM GlcN6P (glucosamine-6-phosphate [1]) | self-cleavage kobs at 2500 uM GlcN6P (glucosamine-6-phosphate [2]) | self-cleavage kobs at 10000 uM GlcN6P (glucosamine-6-phosphate [3])
1 | G13A G40A G62A | < 1e-05 s⁻¹ | < 1e-05 s⁻¹ | –
2 | C16G G35C A48G U57C G62A C67A U69A | < 1e-05 s⁻¹ | < 1e-05 s⁻¹ | < 1e-05 s⁻¹
3 | G13U A39U A48U G51A U55G C70A | < 1e-05 s⁻¹ | – | –
4 | G13U G51C G62C | < 1e-05 s⁻¹ | – | –
5 | C11U U30G U31C | 9.28e-05 ± 2.1e-05 s⁻¹ | – | –
6 | G13U A14U A48U | < 1e-05 s⁻¹ | < 1e-05 s⁻¹ | –
7 | C10U U47C U55G | < 1e-05 s⁻¹ | – | –
8 | A15G A33G A48G G60U | < 1e-05 s⁻¹ | – | –
9 | C16U U46A A52U | < 1e-05 s⁻¹ | – | –
10 | C10G C11A C58G G63U C68A | 0.000138 ± 3.5e-05 s⁻¹ | 0.000117 ± 3.3e-05 s⁻¹ | –
11 | A14U G35A G40C | < 1e-05 s⁻¹ | – | –
12 | A15U U55C C70U | 4.5e-05 ± 2.2e-05 s⁻¹ | 9.45e-05 ± 3.3e-05 s⁻¹ | –
13 | U31G U45C A53G | 0.000175 ± 3.2e-05 s⁻¹ | 0.000528 ± 9.1e-05 s⁻¹ | –
14 | A15G A48U U54A | 0.000159 ± 3.2e-05 s⁻¹ | 0.000106 ± 4.2e-05 s⁻¹ | –
15 | G29A G40C | 5.68e-05 ± 1.5e-05 s⁻¹ | 0.000243 ± 4.7e-05 s⁻¹ | –
16 | U31A C34U A42C A48U G62U | < 1e-05 s⁻¹ | – | –
17 | U31A A36U A48U U69C | < 1e-05 s⁻¹ | – | –
18 | G13A U56A C67A U69G | 0.000128 ± 3.8e-05 s⁻¹ | – | –
19 | G29A G44U U65C | < 1e-05 s⁻¹ | < 1e-05 s⁻¹ | –
20 | G13A C50U G62A | < 1e-05 s⁻¹ | – | –
21 | G29U A53C | 0.00015 ± 7.4e-05 s⁻¹ | 0.00118 ± 0.00032 s⁻¹ | 0.000874 ± 0.00028 s⁻¹
22 | A14G A52U C67U | 7.45e-05 ± 1.3e-05 s⁻¹ | 0.00014 ± 3.1e-05 s⁻¹ | –
23 | A12U C68A | 7.24e-05 ± 3.4e-05 s⁻¹ | 2.89e-05 ± 1.2e-05 s⁻¹ | –

Row | Variant | self-cleavage kobs at 640 uM GlcN6P (glucosamine-6-phosphate [1]) | self-cleavage kobs at 2500 uM GlcN6P (glucosamine-6-phosphate [2]) | self-cleavage kobs at 10000 uM GlcN6P (glucosamine-6-phosphate [3])
24 | A12C U54C C71U | 0.00422 ± 0.0017 s⁻¹ | 0.0234 ± 0.0081 s⁻¹ | –
25 | U30G A36U A42C A64U C67G | < 1e-05 s⁻¹ | < 1e-05 s⁻¹ | –
26 | A14C C58G C67U | 5.66e-05 ± 2.2e-05 s⁻¹ | 5.98e-05 ± 1.9e-05 s⁻¹ | –
27 | U30C U31C G59U C61G C70G | < 1e-05 s⁻¹ | – | –
28 | C10U A52U C67A C68A U69G | 8.14e-05 ± 3.2e-05 s⁻¹ | – | –
29 | A14G G40U G41C | 7.7e-05 ± 1.5e-05 s⁻¹ | 0.00015 ± 3.4e-05 s⁻¹ | –
30 | C11G G13C A15G G43U G63C | < 1e-05 s⁻¹ | < 1e-05 s⁻¹ | –
31 | G26U U31C U47A A64G | 0.000213 ± 6.9e-05 s⁻¹ | – | –
32 | A14C C58A C67A C68G | 5.61e-05 ± 2.2e-05 s⁻¹ | 4.77e-05 ± 1.6e-05 s⁻¹ | –
33 | A12U A33C G41U G62C | < 1e-05 s⁻¹ | < 1e-05 s⁻¹ | –
34 | C11U U54G C58A C67G | 0.000225 ± 7.2e-05 s⁻¹ | 5.14e-05 ± 2e-05 s⁻¹ | –
35 | A24C A52U G59A | < 1e-05 s⁻¹ | – | < 1e-05 s⁻¹
36 | U30A U31A G66A | 0.000765 ± 0.00037 s⁻¹ | – | –
37 | A12C A52U C71U | 4.93e-05 ± 1.4e-05 s⁻¹ | 0.000116 ± 2.4e-05 s⁻¹ | –
38 | A14C U49G U54G C68G | 7.91e-05 ± 3.6e-05 s⁻¹ | – | –
39 | A12G A39G C70G | 0.00011 ± 3.5e-05 s⁻¹ | – | –
40 | G29C G43U U57G | < 1e-05 s⁻¹ | – | –
41 | A12G A14U A42U U54A C70G | < 1e-05 s⁻¹ | – | –
42 | U31G A33C C50U U56C A64G | < 1e-05 s⁻¹ | < 1e-05 s⁻¹ | –
43 | A14G C34U | < 1e-05 s⁻¹ | – | < 1e-05 s⁻¹
44 | A15G C16G U46G | 9.78e-05 ± 2.8e-05 s⁻¹ | 0.000248 ± 9.3e-05 s⁻¹ | –
45 | A15C A48U U49G G62U | < 1e-05 s⁻¹ | – | –
46 | C11G U47G C50A C70G | 0.000245 ± 6.2e-05 s⁻¹ | 0.000139 ± 4e-05 s⁻¹ | 7.52e-05 ± 1.9e-05 s⁻¹

Row | Variant | self-cleavage kobs at 640 uM GlcN6P (glucosamine-6-phosphate [1]) | self-cleavage kobs at 2500 uM GlcN6P (glucosamine-6-phosphate [2]) | self-cleavage kobs at 10000 uM GlcN6P (glucosamine-6-phosphate [3])
47 | C16U G32U C58G | 0.00017 ± 3.4e-05 s⁻¹ | – | –
48 | C11A U54A U55G G63U U65G | < 1e-05 s⁻¹ | – | –
49 | C11A U56A C70U C71A | 0.000256 ± 7.9e-05 s⁻¹ | – | –
50 | C10G A36C G60A | < 1e-05 s⁻¹ | – | –
51 | G29A A39G U54A | 0.00173 ± 0.00059 s⁻¹ | 0.00457 ± 0.0012 s⁻¹ | –
52 | C11G A12U G38C A42U | < 1e-05 s⁻¹ | < 1e-05 s⁻¹ | –
53 | A12G C34G U47C | < 1e-05 s⁻¹ | – | –
54 | U31C G32A U65G | 5.75e-05 ± 1.9e-05 s⁻¹ | 0.000133 ± 3.3e-05 s⁻¹ | –
55 | C10G A14G U31A C34U G51C A53U U54C G66U | < 1e-05 s⁻¹ | – | –
56 | C11U A42C U54C G59A G60A | < 1e-05 s⁻¹ | < 1e-05 s⁻¹ | –
57 | G29C U30C U49G | < 1e-05 s⁻¹ | – | < 1e-05 s⁻¹
58 | G29C G38U A39U C50A | < 1e-05 s⁻¹ | < 1e-05 s⁻¹ | –
59 | A12U G32C G35C A42U | < 1e-05 s⁻¹ | – | –
60 | C11G A12C C70U | 6.11e-05 ± 2.5e-05 s⁻¹ | 8.42e-05 ± 2.9e-05 s⁻¹ | –
61 | A14C A42G G66A | 0.000473 ± 0.00012 s⁻¹ | – | 0.00177 ± 0.0006 s⁻¹
62 | C11A G37C G62A | < 1e-05 s⁻¹ | – | –
63 | A14C U65A C70U | 0.000125 ± 3.2e-05 s⁻¹ | – | –
64 | G13A G37A G66C | < 1e-05 s⁻¹ | – | –
65 | C11U U55G C70A | 8.31e-05 ± 3.3e-05 s⁻¹ | 0.000101 ± 2.5e-05 s⁻¹ | –
66 | A12G G13U G62A | < 1e-05 s⁻¹ | – | –
67 | G13C G43U C58G | < 1e-05 s⁻¹ | < 1e-05 s⁻¹ | < 1e-05 s⁻¹
